This assay addresses T1, C1q (from 3% pooled human serum) (human, UniProt P02745 23-245; P02746 28-253; P02747 29-245).
T1 construct: Native C1q of pooled human serum, detected with rabbit anti-human C1q
Put plainly: ELISA, antibody coated, 3% pooled human serum, anti-C1q detection. As to the method:
Plates were washed and blocked with PBS supplemented with 0.025% Tween 20 and 0.1% gelatine. […] Detection was performed by addition of 1 mg/mL 2,2′-azino-bis(3-ethylbenzothiazoline-6-sulfonic acid) (ABTS; Roche, Mannheim, Germany) for about 30 min. The reaction was stopped by the addition of 100 μL 2% oxalic acid. Absorbance was measured at 405 nm in a microplate reader (Biotek, Winooski, Vt.). Log transformed data were analyzed by fitting sigmoidal dose-response curves with variable slope using GraphPad Prism software.

B1: IgG1-CD3 (IgG1-huCLB-T3/4-F405L), wild-type Fc (antibody)
heavy: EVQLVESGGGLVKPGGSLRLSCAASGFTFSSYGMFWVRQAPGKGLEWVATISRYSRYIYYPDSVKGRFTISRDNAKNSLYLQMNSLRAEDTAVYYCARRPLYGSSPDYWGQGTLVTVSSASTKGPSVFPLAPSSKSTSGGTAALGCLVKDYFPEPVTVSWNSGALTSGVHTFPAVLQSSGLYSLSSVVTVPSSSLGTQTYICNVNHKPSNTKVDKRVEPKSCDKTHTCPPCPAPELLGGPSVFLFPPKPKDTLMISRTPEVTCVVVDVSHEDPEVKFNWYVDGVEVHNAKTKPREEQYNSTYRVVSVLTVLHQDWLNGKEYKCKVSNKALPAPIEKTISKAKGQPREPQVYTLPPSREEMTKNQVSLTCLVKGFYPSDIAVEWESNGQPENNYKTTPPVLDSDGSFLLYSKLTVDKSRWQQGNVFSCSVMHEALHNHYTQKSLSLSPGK
VL: EIVLTQSPATLSLSPGERATLSCSASSSVTYVHWYQQKPGQAPRLLIYDTSKLASGIPARFSGSGSGTDFTLTISSLEPEDFAVYYCFQGSGYPLTFGSGTKLEMR
notes: also called wild-type IgG1-CD3; IgG1-huCLB-3/4
Consider B1, for which the binding result is “binds”.

B2: IgG1-CD3-DA (IgG1-huCLB-T3/4-F405L with D265A) (antibody)
heavy: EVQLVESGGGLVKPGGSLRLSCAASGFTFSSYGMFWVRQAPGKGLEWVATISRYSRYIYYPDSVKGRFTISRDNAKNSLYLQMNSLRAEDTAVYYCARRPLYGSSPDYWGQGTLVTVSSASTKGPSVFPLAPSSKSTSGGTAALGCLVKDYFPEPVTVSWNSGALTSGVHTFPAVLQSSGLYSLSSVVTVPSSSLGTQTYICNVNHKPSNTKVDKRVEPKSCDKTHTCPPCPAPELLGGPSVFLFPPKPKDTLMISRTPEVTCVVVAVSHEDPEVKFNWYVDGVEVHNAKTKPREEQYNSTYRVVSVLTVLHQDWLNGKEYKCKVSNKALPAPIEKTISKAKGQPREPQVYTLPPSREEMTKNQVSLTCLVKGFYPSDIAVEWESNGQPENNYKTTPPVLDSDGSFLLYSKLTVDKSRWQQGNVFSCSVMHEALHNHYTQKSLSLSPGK
VL: EIVLTQSPATLSLSPGERATLSCSASSSVTYVHWYQQKPGQAPRLLIYDTSKLASGIPARFSGSGSGTDFTLTISSLEPEDFAVYYCFQGSGYPLTFGSGTKLEMR
notes: IgG1, F405L
For B2, the binding result is listed as “no binding (tested: coated at 7-30000 ng/mL)”.

B3: IgG1-CD3-LFLEDA (IgG1-huCLB-T3/4-F405L with L234F/L235E/D265A) (antibody, name in EU numbering)
heavy: EVQLVESGGGLVKPGGSLRLSCAASGFTFSSYGMFWVRQAPGKGLEWVATISRYSRYIYYPDSVKGRFTISRDNAKNSLYLQMNSLRAEDTAVYYCARRPLYGSSPDYWGQGTLVTVSSASTKGPSVFPLAPSSKSTSGGTAALGCLVKDYFPEPVTVSWNSGALTSGVHTFPAVLQSSGLYSLSSVVTVPSSSLGTQTYICNVNHKPSNTKVDKRVEPKSCDKTHTCPPCPAPEFEGGPSVFLFPPKPKDTLMISRTPEVTCVVVAVSHEDPEVKFNWYVDGVEVHNAKTKPREEQYNSTYRVVSVLTVLHQDWLNGKEYKCKVSNKALPAPIEKTISKAKGQPREPQVYTLPPSREEMTKNQVSLTCLVKGFYPSDIAVEWESNGQPENNYKTTPPVLDSDGSFLLYSKLTVDKSRWQQGNVFSCSVMHEALHNHYTQKSLSLSPGK
VL: EIVLTQSPATLSLSPGERATLSCSASSSVTYVHWYQQKPGQAPRLLIYDTSKLASGIPARFSGSGSGTDFTLTISSLEPEDFAVYYCFQGSGYPLTFGSGTKLEMR
notes: IgG1, F405L
B3: the binding result is recorded as “no binding (tested: coated at 7-30000 ng/mL)”.

B4: IgG1-CD3-DANQ (IgG1-huCLB-T3/4-F405L with D265A/N297Q) (antibody)
heavy: EVQLVESGGGLVKPGGSLRLSCAASGFTFSSYGMFWVRQAPGKGLEWVATISRYSRYIYYPDSVKGRFTISRDNAKNSLYLQMNSLRAEDTAVYYCARRPLYGSSPDYWGQGTLVTVSSASTKGPSVFPLAPSSKSTSGGTAALGCLVKDYFPEPVTVSWNSGALTSGVHTFPAVLQSSGLYSLSSVVTVPSSSLGTQTYICNVNHKPSNTKVDKRVEPKSCDKTHTCPPCPAPELLGGPSVFLFPPKPKDTLMISRTPEVTCVVVAVSHEDPEVKFNWYVDGVEVHNAKTKPREEQYQSTYRVVSVLTVLHQDWLNGKEYKCKVSNKALPAPIEKTISKAKGQPREPQVYTLPPSREEMTKNQVSLTCLVKGFYPSDIAVEWESNGQPENNYKTTPPVLDSDGSFLLYSKLTVDKSRWQQGNVFSCSVMHEALHNHYTQKSLSLSPGK
VL: EIVLTQSPATLSLSPGERATLSCSASSSVTYVHWYQQKPGQAPRLLIYDTSKLASGIPARFSGSGSGTDFTLTISSLEPEDFAVYYCFQGSGYPLTFGSGTKLEMR
notes: IgG1, F405L
Regarding B4, the binding result is “no binding (tested: coated at 7-30000 ng/mL)”.

B5: IgG1-CD3-LFLENQ (IgG1-huCLB-T3/4-F405L with L234F/L235E/N297Q) (antibody)
heavy: EVQLVESGGGLVKPGGSLRLSCAASGFTFSSYGMFWVRQAPGKGLEWVATISRYSRYIYYPDSVKGRFTISRDNAKNSLYLQMNSLRAEDTAVYYCARRPLYGSSPDYWGQGTLVTVSSASTKGPSVFPLAPSSKSTSGGTAALGCLVKDYFPEPVTVSWNSGALTSGVHTFPAVLQSSGLYSLSSVVTVPSSSLGTQTYICNVNHKPSNTKVDKRVEPKSCDKTHTCPPCPAPEFEGGPSVFLFPPKPKDTLMISRTPEVTCVVVDVSHEDPEVKFNWYVDGVEVHNAKTKPREEQYQSTYRVVSVLTVLHQDWLNGKEYKCKVSNKALPAPIEKTISKAKGQPREPQVYTLPPSREEMTKNQVSLTCLVKGFYPSDIAVEWESNGQPENNYKTTPPVLDSDGSFLLYSKLTVDKSRWQQGNVFSCSVMHEALHNHYTQKSLSLSPGK
VL: EIVLTQSPATLSLSPGERATLSCSASSSVTYVHWYQQKPGQAPRLLIYDTSKLASGIPARFSGSGSGTDFTLTISSLEPEDFAVYYCFQGSGYPLTFGSGTKLEMR
notes: IgG1, F405L
For B5, the binding result is recorded as “no binding (tested: coated at 7-30000 ng/mL)”.

B6: IgG1-CD3-LFLE (IgG1-huCLB-T3/4-F405L with L234F/L235E) (antibody)
heavy: EVQLVESGGGLVKPGGSLRLSCAASGFTFSSYGMFWVRQAPGKGLEWVATISRYSRYIYYPDSVKGRFTISRDNAKNSLYLQMNSLRAEDTAVYYCARRPLYGSSPDYWGQGTLVTVSSASTKGPSVFPLAPSSKSTSGGTAALGCLVKDYFPEPVTVSWNSGALTSGVHTFPAVLQSSGLYSLSSVVTVPSSSLGTQTYICNVNHKPSNTKVDKRVEPKSCDKTHTCPPCPAPEFEGGPSVFLFPPKPKDTLMISRTPEVTCVVVDVSHEDPEVKFNWYVDGVEVHNAKTKPREEQYNSTYRVVSVLTVLHQDWLNGKEYKCKVSNKALPAPIEKTISKAKGQPREPQVYTLPPSREEMTKNQVSLTCLVKGFYPSDIAVEWESNGQPENNYKTTPPVLDSDGSFLLYSKLTVDKSRWQQGNVFSCSVMHEALHNHYTQKSLSLSPGK
VL: EIVLTQSPATLSLSPGERATLSCSASSSVTYVHWYQQKPGQAPRLLIYDTSKLASGIPARFSGSGSGTDFTLTISSLEPEDFAVYYCFQGSGYPLTFGSGTKLEMR
notes: IgG1, F405L
For B6, the binding result was “no binding (tested: coated at 7-30000 ng/mL)”.

B7: IgG1-CD3-LALA (IgG1-huCLB-T3/4-F405L with L234A/L235A) (antibody)
heavy: EVQLVESGGGLVKPGGSLRLSCAASGFTFSSYGMFWVRQAPGKGLEWVATISRYSRYIYYPDSVKGRFTISRDNAKNSLYLQMNSLRAEDTAVYYCARRPLYGSSPDYWGQGTLVTVSSASTKGPSVFPLAPSSKSTSGGTAALGCLVKDYFPEPVTVSWNSGALTSGVHTFPAVLQSSGLYSLSSVVTVPSSSLGTQTYICNVNHKPSNTKVDKRVEPKSCDKTHTCPPCPAPEAAGGPSVFLFPPKPKDTLMISRTPEVTCVVVDVSHEDPEVKFNWYVDGVEVHNAKTKPREEQYNSTYRVVSVLTVLHQDWLNGKEYKCKVSNKALPAPIEKTISKAKGQPREPQVYTLPPSREEMTKNQVSLTCLVKGFYPSDIAVEWESNGQPENNYKTTPPVLDSDGSFLLYSKLTVDKSRWQQGNVFSCSVMHEALHNHYTQKSLSLSPGK
VL: EIVLTQSPATLSLSPGERATLSCSASSSVTYVHWYQQKPGQAPRLLIYDTSKLASGIPARFSGSGSGTDFTLTISSLEPEDFAVYYCFQGSGYPLTFGSGTKLEMR
notes: IgG1, F405L
Regarding B7, the binding result is reported as “no binding (tested: coated at 7-30000 ng/mL)”.

B8: IgG1-CD3-DAPS (IgG1-huCLB-T3/4-F405L with D265A/P331S) (antibody)
heavy: EVQLVESGGGLVKPGGSLRLSCAASGFTFSSYGMFWVRQAPGKGLEWVATISRYSRYIYYPDSVKGRFTISRDNAKNSLYLQMNSLRAEDTAVYYCARRPLYGSSPDYWGQGTLVTVSSASTKGPSVFPLAPSSKSTSGGTAALGCLVKDYFPEPVTVSWNSGALTSGVHTFPAVLQSSGLYSLSSVVTVPSSSLGTQTYICNVNHKPSNTKVDKRVEPKSCDKTHTCPPCPAPELLGGPSVFLFPPKPKDTLMISRTPEVTCVVVAVSHEDPEVKFNWYVDGVEVHNAKTKPREEQYNSTYRVVSVLTVLHQDWLNGKEYKCKVSNKALPASIEKTISKAKGQPREPQVYTLPPSREEMTKNQVSLTCLVKGFYPSDIAVEWESNGQPENNYKTTPPVLDSDGSFLLYSKLTVDKSRWQQGNVFSCSVMHEALHNHYTQKSLSLSPGK
VL: EIVLTQSPATLSLSPGERATLSCSASSSVTYVHWYQQKPGQAPRLLIYDTSKLASGIPARFSGSGSGTDFTLTISSLEPEDFAVYYCFQGSGYPLTFGSGTKLEMR
notes: IgG1, F405L
In the case of B8, the binding result is “no binding (tested: coated at 7-30000 ng/mL)”.

The values above are taken from patent US20150337049A1 (Genmab, published 2015).
